Reference: patent US20220064648, “NOVEL X-[…] FOR THE USE IN DETECTION OF SNAP25” (Galderma Holding S.A., published 2022)

target: SNAP25 Peptide 4 (PEP4, BoNT/A cleavage site region) (Homo sapiens, UniProt P60880 SEQ:1-24); assay: ELONA; conditions: label: biotin

Binder	binding signal
PEP 4.01 (ssDNA) DNA: TTTTTAAGCCCACAAGCGTTCGGCTCTCACAGATCGTTGACGTGGGCCCATG	257 ELISA signal
PEP 4.02 (ssDNA) DNA: TTTTTAAGCCCACTACTGTTCGAAGGGCACAGTCCAGGCCGGTGGGCCCATG	208 ELISA signal

Target: T1, SNAP25 Peptide 3 (PEP3; only a fragment of it is a SNAP25 subsequence) (Homo sapiens, UniProt P60880 SEQ:1-33)
T1 chain: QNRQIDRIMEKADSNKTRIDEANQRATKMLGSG
Assay: ELONA
Conditions: not given
Text: (§1) The data in Table 2 was collected by running direct ELISA assays on the 96 X-aptamers, elucidating their ability to bind SNAP25, SNAP25 fragments (PEP1, PEP2, PEP3, and PEP4), and a negative control. The X-aptamers were biotinylated and immobilized onto streptavidin-coated plates and were utilized as detection molecules. Higher numbers represent strong binding. The negative control peptide is a random peptide to measure the amount of binding that occurs to a random amino acid sequence.

Binder	binding signal
PEP 3.17 (ssDNA, W indole, X amine, Y phenol modified dU [14, 27 (amine dU), 19 (indole dU), 20 (phenol dU)]) DNA: TTTTTAAGCCCACTAGAGTTCGGCCATCACAGTCCAACACTGTGGGCCCATG	110 ELISA signal
PEP 3.15 (ssDNA, W indole, X amine, Y phenol modified dU [14, 25, 27, 43 (amine dU), 19, 46 (phenol dU), 36 (indole dU)]) DNA: TTTTTAACACGACTGCACTGTGAATCTCGAACGCATCGGGAGTCGTGCCATG	114 ELISA signal
PEP 3.14 (ssDNA, W indole, X amine, Y phenol modified dU [19, 34 (phenol dU), 38 (indole dU)]) DNA: TTTTTAACACGACACCACTGTGCCCACCACAGTTCACTGAAGTGGGCCCATG	114 ELISA signal
PEP 3.08 (ssDNA, W indole, X amine, Y phenol modified dU [15Y,19Y,24W,25X,27X,40W,43X,46Y]) DNA: TTTTTAACACGACGTCACTGTGGTTCTCGAACGCCGCGCTTGTCGTGCCATG	207 ELISA signal
PEP 3.02 (ssDNA, W indole, X amine, Y phenol modified dU [19Y,24W,25X,34Y,40W,43X,46Y]) DNA: TTTTTAACACGACAGCACTGTGGTTCGCGAACCTCAAGCTCGTCGTGCCATG	406 ELISA signal
PEP 3.04 (ssDNA, W indole, X amine, Y phenol modified dU [19Y,24W,34Y,40W]) DNA: TTTTTAAGCCCACGGCACTGTGCTCAGCACAGCTCGGGGTGGTGGGCCCATG	276 ELISA signal
PEP 3.05 (ssDNA, W indole, X amine, Y phenol modified dU [19Y,23W,24W,38W]) DNA: TTTTTAACACGACGACACTGTGTTGGGCGAACTCCGCTGGGGTGGGCCCATG	272 ELISA signal
PEP 3.19 (ssDNA, W indole, X amine, Y phenol modified dU [19, 46 (phenol dU), 27, 43 (amine dU)]) DNA: TTTTTAAGCCCACGCCACTGTGACCATCGAACCACACGGCCGTCGTGCCATG	102 ELISA signal
PEP 3.03 (ssDNA, W indole, X amine, Y phenol modified dU [16W,19W,20Y,34Y,38W,40W,43X,46Y]) DNA: TTTTTAACACGACAATGGTTCGGGGGGCGAACGTCACTGTGGTCGTGCCATG	338 ELISA signal
PEP 3.18 (ssDNA, W indole, X amine, Y phenol modified dU [19, 36 (indole dU), 20, 46 (phenol dU), 27, 43 (amine dU)]) DNA: TTTTTAACACGACACGGGTTCGCACATCACAGAGATACACTGTCGTGCCATG	105 ELISA signal
PEP 3.13 (ssDNA, W indole, X amine, Y phenol modified dU [15, 19, 46 (phenol dU), 38 (indole dU), 43 (amine dU)]) DNA: TTTTTAACACGACATCACTGTGCACAGCGAACTGCGTTGGCGTCGTGCCATG	115 ELISA signal
PEP 3.11 (ssDNA, W indole, X amine, Y phenol modified dU [14X,16W,19W,20Y,40W,43X,46Y]) DNA: TTTTTAAGCCCACTGTCGTTCGGCGGGCGAACGACAGCATGGTCGTGCCATG	137 ELISA signal
PEP 3.24 (ssDNA, W indole, X amine, Y phenol modified dU [19,20,43,46]) DNA: TTTTTAAGCCCACCAGGGTTCGGGAGCCGAACGCCAGCACTGTCGTGCCATG	81 ELISA signal
PEP 3.16 (ssDNA, W indole, X amine, Y phenol modified dU [15, 19, 34 (phenol dU)]) DNA: TTTTTAAGCCCACATCACTGTGCGAGCCACAGATCAGGCAGGTGGGCCCATG	111 ELISA signal
PEP 3.21 (ssDNA, W indole, X amine, Y phenol modified dU [14, 27, 43 (amine dU), 19, 23, 38, 40 (indole dU), 20, 46 (phenol dU)]) DNA: TTTTTAAGCCCACTCCGGTTCGTCCATCACAGCCCACTGTGGTCGTGCCATG	96 ELISA signal
PEP 3.06 (ssDNA, W indole, X amine, Y phenol modified dU [19Y,24W,35Y,43X,46Y]) DNA: TTTTTAACACGACCGCACTGTGATAGGCGAACGGTGTGGAGGTCGTGCCATG	230 ELISA signal
PEP 3.23 (ssDNA, W indole, X amine, Y phenol modified dU [15, 19, 34 (phenol dU), 27 (amine dU)]) DNA: TTTTTAAGCCCACCTCACTGTGCAAGTCACAGGTCGGCACCGTGGGCCCATG	95 ELISA signal
PEP 3.22 (ssDNA, W indole, X amine, Y phenol modified dU [15, 19, 46 (phenol dU), 43 (amine dU)]) DNA: TTTTTAACACGACATCACTGTGGAAGACACAGGACGTGCGTGTCGTGCCATG	96 ELISA signal
PEP 3.12 (ssDNA, W indole, X amine, Y phenol modified dU [14 (amine dU), 16 (indole dU), 19 (phenol dU)]) DNA: TTTTTAACACGACTATCCTGTGAGCAACACAGGGCGGCACTGTGGGCCCATG	118 ELISA signal
PEP 3.10 (ssDNA, W indole, X amine, Y phenol modified dU [19Y,34Y]) DNA: TTTTTAACACGACAGCACTGTGCACAGCACAGCTCAAGGGTGTGGGCCCATG	139 ELISA signal
PEP 3.07 (ssDNA, W indole, X amine, Y phenol modified dU [19Y]) DNA: TTTTTAAGCCCACGACACTGTGGCCAACACAGTACATGCATGTGGGCCCATG	219 ELISA signal
PEP 3.20 (ssDNA, W indole, X amine, Y phenol modified dU [16, 17, 23, 24 (indole dU), 19 (phenol dU), 27 (amine dU)]) DNA: TTTTTAAGCCCACAGTTCTGTGTTCATCACAGAGCAACACTGTGGGCCCATG	97 ELISA signal
PEP 3.01 (ssDNA, W indole, X amine, Y phenol modified dU [19Y,24W,25X,27X,34Y,36W,38W,40W]) DNA: TTTTTAACACGACACCACTGTGGTTCTCACAGCTATGTGTTGTGGGCCCATG	503 ELISA signal

Target: T2, SNAP25 Peptide 1 (PEP1) (Homo sapiens, UniProt P60880 SEQ:1-35)
T2 chain: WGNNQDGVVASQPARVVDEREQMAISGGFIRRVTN
Assay: ELONA
Conditions: not given
Text: as §1

Binder	binding signal
PEP 1.03 (ssDNA, W indole, X amine, Y phenol modified dU [19,20,36]) DNA: TTTTTAACACGACGGGGGTTCGGGCAGCGAACAGATGGGCGGTGGGCCCATG	677 ELISA signal
PEP 1.18 (ssDNA, W indole, X amine, Y phenol modified dU [19]) DNA: TTTTTAACACGACCACCCTGTGCAAGGCGAACTCCGTCAAAGTGGGCCCATG	200 ELISA signal
PEP 1.19 (ssDNA, W indole, X amine, Y phenol modified dU [15,19,34,43,46]) DNA: TTTTTAACACGACATAGCTGTGACAGGCACAGGTCATGGGAGTCGTGCCATG	200 ELISA signal
PEP 1.23 (ssDNA, W indole, X amine, Y phenol modified dU [14,15,19,25,38,43,46]) DNA: TTTTTAAGCCCACTTCACTGTGGCTCGCACAGGCCGATGGGGTCGTGCCATG	168 ELISA signal
PEP 1.05 (ssDNA, W indole, X amine, Y phenol modified dU [19,40,43,46]) DNA: TTTTTAAGCCCACCAAGCTGTGGCGGGCACAGGGCAGCATCGTCGTGCCATG	641 ELISA signal
PEP 1.10 (ssDNA, W indole, X amine, Y phenol modified dU [19,24,38 (W indole dU); 20 (Y phenol dU); 27 (X amine dU)]) DNA: TTTTTAACACGACGGGCGTTCGCTGGTCGAACACCAATGCTGTGGGCCCATG	293 ELISA signal
PEP 1.17 (ssDNA, W indole, X amine, Y phenol modified dU [19,38 (W indole dU); 20,34,35,46 (Y phenol dU); 25,43 (X amine dU)]) DNA: TTTTTAACACGACGGCGGTTCGCCTCCCGAACGTTGTTGGAGTCGTGCCATG	200 ELISA signal
PEP 1.08 (ssDNA, W indole, X amine, Y phenol modified dU [19 (W indole dU); 20,46 (Y phenol dU); 25,43 (X amine dU)]) DNA: TTTTTAACACGACCCCGGTTCGACTCCCACAGAGCGGGGGTGTCGTGCCATG	357 ELISA signal
PEP 1.14 (ssDNA, W indole, X amine, Y phenol modified dU [15,19,34 (Y phenol dU); 24,40 (W indole dU)]) DNA: TTTTTAAGCCCACCTGACTGTGGTGGGCACAGTTCGCCATCGTGGGCCCATG	241 ELISA signal
PEP 1.04 (ssDNA, W indole, X amine, Y phenol modified dU [16,19,34,38,43,46]) DNA: TTTTTAACACGACGCTCCTGTGACAGCCGAACATCATTGGTGTCGTGCCATG	645 ELISA signal
PEP 1.24 (ssDNA, W indole, X amine, Y phenol modified dU [19,36,38,43,46]) DNA: TTTTTAACACGACCGCCCTGTGGGCAACACAGGGATCTGCAGTCGTGCCATG	160 ELISA signal
PEP 1.20 (ssDNA, W indole, X amine, Y phenol modified dU [19,24]) DNA: TTTTTAACACGACGAACCTGTGCTCAACACAGAACATCACAGTGGGCCCATG	188 ELISA signal
PEP 1.11 (ssDNA, W indole, X amine, Y phenol modified dU [19,36,38 (W indole dU); 20,34,46 (Y phenol dU); 27,43 (X amine dU)]) DNA: TTTTTAACACGACGCCAGTTCGAAGGTCACAGTTATTTGGCGTCGTGCCATG	293 ELISA signal
PEP 1.06 (ssDNA, W indole, X amine, Y phenol modified dU [15,20 (Y phenol dU); 19,24,38 (W indole dU); 27 (X amine dU)]) DNA: TTTTTAAGCCCACCTCAGTTCGCTCATCGAACGACGATGCTGTGGGCCCATG	477 ELISA signal
PEP 1.21 (ssDNA, W indole, X amine, Y phenol modified dU [17,19,24,25]) DNA: TTTTTAAGCCCACCGGTCTGTGGTTCCCACAGTGCATGCGAGTGGGCCCATG	188 ELISA signal
PEP 1.01 (ssDNA, W indole, X amine, Y phenol modified dU [19,34,35]) DNA: TTTTTAACACGACGCGACTGTGAGAGGCACAGTTTGGGGGCGTGGGCCCATG	2240 ELISA signal
PEP 1.15 (ssDNA, W indole, X amine, Y phenol modified dU [15,19,34 (Y phenol dU); 17,36 (W indole dU)]) DNA: TTTTTAAGCCCACCTCTCTGTGGGAGACACAGTTATTGCAGGTGGGCCCATG	220 ELISA signal
PEP 1.12 (ssDNA, W indole, X amine, Y phenol modified dU [19,24 (W indole dU); 20,34,46 (Y phenol dU); 43 (X amine dU)]) DNA: TTTTTAAGCCCACAAAAGTTCGATCAGCACAGGTCGCCAAAGTCGTGCCATG	289 ELISA signal
PEP 1.16 (ssDNA, W indole, X amine, Y phenol modified dU [19 (Y phenol dU); 36,40 (W indole dU)]) DNA: TTTTTAACACGACGGGCCTGTGAACACCGAACTGATGGGTCGTGGGCCCATG	212 ELISA signal
PEP 1.09 (ssDNA, W indole, X amine, Y phenol modified dU [14,27 (X amine dU); 15,19,34 (Y phenol dU); 17,23 (W indole dU)]) DNA: TTTTTAACACGACTTATCTGTGTCAGTCGAACGTCGCGGAGGTGGGCCCATG	337 ELISA signal
PEP 1.22 (ssDNA, W indole, X amine, Y phenol modified dU [14,15,19,20]) DNA: TTTTTAACACGACTTGGGTTCGGAAGGCGAACCGCAGCAATGTGGGCCCATG	184 ELISA signal
PEP 1.07 (ssDNA, W indole, X amine, Y phenol modified dU [14,25 (X amine dU); 19,35 (Y phenol dU); 24,40 (W indole dU)]) DNA: TTTTTAACACGACTCAACTGTGATTCCCACAGACTGGGCTCGTGGGCCCATG	429 ELISA signal
PEP 1.02 (ssDNA, W indole, X amine, Y phenol modified dU [16,19,25,36,43,46]) DNA: TTTTTAACACGACCATCCTGTGCCTCACGAACTCATTGCCCGTCGTGCCATG	742 ELISA signal
